Changes are numbered by the printed parent chain. Where two headings read alike, the source gives them in different places.
Legend:
[1] = target: T1, human Galectin-9 CRD2 (residues 218-355), biotinylated (human, UniProt O00182 218-355, biotinylated in vitro with BirA (Avitag)); experiment: phage ELISA, phage-displayed Fab
T1 construct: also called wild type human Galectin-9 CRD2; not shown: hexahistidine tag, Avitag and TEV cleavage site upstream of the cloned gene (pHBT vector)
Method: (§1) FIG. 13 is a graph showing a binding characterization of G9.2 Fab clone for wild-type Galectin-9 CRD2 or the […] mutant using phage ELISA. Binding of Fab clones to human Galectin-9 CRD2 assayed using phage ELISA.
(§2) Potential additional epitopes were explored using additional clones that bind to Galectin-9 CRD2. A phage display library selection using a modified scheme so as to enrich clones that bind to an epitope that is distinct from that of G9.2-17 was performed.

[2] = target: T1, human Galectin-9 CRD2 (residues …); experiment: SPR, Fab over CRD2 on Avicap chip (OneStep)
Source text: FIG. 12 contains charts showing surface plasmon resonance analyses of Fab G9.2-17 (top) and Fab G9.2.17mut6 (bottom) binding to the CRD2 of human (left) and mouse (right) Galectin-9. Human or mouse Galectin-9 CRD2 was immobilized on an Avicap chip preloaded with neutravidin on a Pall ForteBio Pioneer instrument. Fab samples were then flowed using the OneStep method. The binding and dissociation phases of the experiments are marked in the top panels.
In SPR experiments, a biotinylated Galectin-9 sample was immobilized on an Avicap chip (Pall ForteBio) that had been preloaded with neutravidin (ThermoFisher). Antibody samples were flowed using the OneStep method on a Pioneer SPR instrument (Pall ForteBio) and the results are provided in FIG. 6.

[3] = target: T2, human Galectin-9 CRD2 W309K mutant, biotinylated (human, UniProt O00182 218-355, biotinylated (Avitag)); experiment: phage ELISA, phage-displayed Fab
T2 construct: also called W309K Galectin-9 CRD2 mutant; not shown: tags of the pHBT vector as for wild-type CRD2
T2 sequence (O00182 218-355 W309K): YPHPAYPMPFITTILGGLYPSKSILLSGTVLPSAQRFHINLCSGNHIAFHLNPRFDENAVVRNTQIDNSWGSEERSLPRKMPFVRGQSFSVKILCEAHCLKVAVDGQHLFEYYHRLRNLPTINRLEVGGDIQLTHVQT
Method: as §1, §2

[4] = target: T1, human Galectin-9 CRD2 (residues …); experiment: phage ELISA, phage-displayed Fab; also on CRD2 pre-incubated with G9.2-17 IgG
Method: as §1, §2

[5] = target: T3, human Galectin-9 CRD1 (residues 1-148), biotinylated (human, UniProt O00182 1-148, biotinylated in vitro with BirA (Avitag)); experiment: phage ELISA, phage-displayed Fab on biotinylated CRD
T3 construct: Made as GST fusion, GST cleaved off with thrombin, gel filtered, biotinylated; not shown: Avitag upstream of the cloned gene (pGEX vector), left after thrombin cleavage from GST
T3 sequence (O00182 1-148): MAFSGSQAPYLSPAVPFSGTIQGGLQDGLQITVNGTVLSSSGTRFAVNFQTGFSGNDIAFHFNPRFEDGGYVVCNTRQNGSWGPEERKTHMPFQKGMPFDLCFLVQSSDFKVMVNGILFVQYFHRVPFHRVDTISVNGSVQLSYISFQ

[6] = target: T3, human Galectin-9 CRD1 (residues 1-148), …; experiment: bead-based binding assay, purified Fab (FIG. 5)
Method: (§3) The affinities of the antibodies were assessed using a bead-based assay as previously described (Nishikori et al., J Mol Biol, 2012, 424, 391-399) and surface plasmon resonance (SPR). In the bead-based assay, a biotinylated protein (either a Galectin-9 sample or a Fab sample) was immobilized on streptavidin-coated Dynabeads M280 via the biotin-streptavidin interaction. After blocking the excess biotin-binding sites on the beads using unconjugated biotin, binding titration was performed by incubating the second component (i.e., Fab for immobilized Galectin-9 or vice versa), followed by quantification using a dye-labeled neutravidin (ThermoFisher) and flow cytometry analysis. In experiments where the second component is an IgG, a dye-labeled anti-human IgG or anti-mouse IgG antibody was used for detection.

[7] = target: T3, human Galectin-9 CRD1 (residues 1-148), …; experiment: bead-based binding assay, flow cytometry
Method: as §3

[8] = target: T3, human Galectin-9 CRD1 (residues 1-148), …; experiment: bead-based binding assay, flow cytometry; remark: listed apart in the source
Method: as §3

[9] = target: T3, human Galectin-9 CRD1 (residues 1-148), …; experiment: bead-based binding assay, flow cytometry; remark: listed apart in the source
Method: as §3

[10] = target: T1, human Galectin-9 CRD2 (residues …); experiment: bead-based binding assay

T1 sequence (O00182 218-355 limits assumed): as the sequence (O00182 218-355 W309K) above, with K92W counted along it

B1: G9.2-15 Fab (Fab, V domains shown)
VH: EVQLVESGGGLVQPGGSLRLSCAASGFTVSSSSIHWVRQAPGKGLEWVASIYSSSGYTSYADSVKGRFTISADTSKNTAYLQMNSLRAEDTAVYYCARNVENYPYWAWPWGYYGAIDYWGQGTLVTVSS
VL: DIQMTQSPSSLSASVGDRVTITCRASQSVSSAVAWYQQKPGKAPKLLIYSASSLYSGVPSRFSGSRSGTDFTLTISSLQPEDFATYYCQQSSWGLITFGQGTKVEIKR
notes: Avitag at the C-terminus of the heavy chain, biotinylated when required; also called Fab G9.2-15
- binding result [1]: binds

B2: G9.2-17 Fab (Fab, V domains shown)
VH: EVQLVESGGGLVQPGGSLRLSCAASGFTVSSSSIHWVRQAPGKGLEWVAYISSSSGYTYYADSVKGRFTISADTSKNTAYLQMNSLRAEDTAVYYCARYWSYPSWWPYRGMDYWGQGTLVTVSS
VL: B1 VL with W93T, G94D, L95P
notes: Avitag at the C-terminus of the heavy chain, biotinylated when required; also called Fab G9.2-17
- binding result [1]: binds

B3: G9.2-17mut6 Fab (Fab, V domains shown)
VH: B2 VH with W106S
VL: B1 VL with W93T, G94D, L95P
notes: Purified Fab; point mutant of G9.2-17 in CDR-H3; also called Fab G9.2-17mut6; G9.2-17m6
- binding result [2]: binds

B4: G9.2-24 Fab (Fab, V domains shown)
VH: EVQLVESGGGLVQPGGSLRLSCAASGFTVYSSSIHWVRQAPGKGLEWVASIYSSYGYTSYADSVKGRFTISADTSKNTAYLQMNSLRAEDTAVYYCARSYSSETHYGWAMDYWGQGTLVTVSS
VL: B1 VL with S91W, W93Q, G94S, L95P, I96V
- binding result [3]: binds
- binding result [4]: binds

B5: G9.2-25 Fab (Fab, V domains shown)
VH: EVQLVESGGGLVQPGGSLRLSCAASGFTLSSSSIHWVRQAPGKGLEWVASIYSSYGSTSYADSVKGRFTISADTSKNTAYLQMNSLRAEDTAVYYCARQYYTYFEWYMGWGYALDYWGQGTLVTVSS
VL: DIQMTQSPSSLSASVGDRVTITCRASQSVSSAVAWYQQKPGKAPKLLIYSASSLYSGVPSRFSGSRSGTDFTLTISSLQPEDFATYYCQQSYVYYPFTFGQGTKVEIKR
- binding result [3]: binds
- binding result [4]: binds

B6: G9.2-26 Fab (Fab, V domains shown)
VH: EVQLVESGGGLVQPGGSLRLSCAASGFTVSSSSIHWVRQAPGKGLEWVAYISSYSGSTYYADSVKGRFTISADTSKNTAYLQMNSLRAEDTAVYYCARSSALYWMDFSYSALDYWGQGTLVTVSS
VL: DIQMTQSPSSLSASVGDRVTITCRASQSVSSAVAWYQQKPGKAPKLLIYSASSLYSGVPSRFSGSRSGTDFTLTISSLQPEDFATYYCQQGGWYYGPITFGQGTKVEIKR
- binding result [3]: binds
- binding result [4]: binds

B7: G9.1-5 Fab (Fab, V domains shown)
VH: EVQLVESGGGLVQPGGSLRLSCAASGFTIYYSSIHWVRQAPGKGLEWVASISSSYGSTYYADSVKGRFTISADTSKNTAYLQMNSLRAEDTAVYYCARSVSWYPYYYYYGYGSGLDYWGQGTLVTVSS
VL: B6 VL with G91Y, G92Y, W93G, Y94W, Y95F, G96Y, I98V
notes: Avitag at the C-terminus of the heavy chain, biotinylated when required
- binding result [5]: binds

B8: G9.1-6 Fab (Fab, V domains shown)
VH: EVQLVESGGGLVQPGGSLRLSCAASGFTLSSSSIHWVRQAPGKGLEWVASIYSSYGSTSYADSVKGRFTISADTSKNTAYLQMNSLRAEDTAVYYCARSSHWYMYWSYWGWYIGMDYWGQGTLVTVSS
VL: B1 VL with S91Y, S92H, W93S, G94S, I96F
notes: as for B7
- binding result [6]: binds

B9: G9.1-7 Fab (Fab, V domains shown)
VH: EVQLVESGGGLVQPGGSLRLSCAASGFTVSSSSIHWVRQAPGKGLEWVASISSYYGYTYYADSVKGRFTISADTSKNTAYLQMNSLRAEDTAVYYCARSYSYGYDYFVKYYTMDYWGQGTLVTVSS
VL: B6 VL with G91Y, G92P, W93G, Y95R, P97L
- binding result [5]: binds

B10: G9.1-8 WT mIgG1 (antibody, V domains shown)
VH: EVQLVESGGGLVQPGGSLRLSCAASGFTVSSSSIHWVRQAPGKGLEWVAYIYPYSGYTSYADSVKGRFTISADTSKNTAYLQMNSLRAEDTAVYYCARYSTYSWGGIGKWVWGMDYWGQGTLVTVSS
VL: B6 VL with G91S, G92Y, W93Y, Y94D, Y95S, G96N
- Kd [7]: 2.4 nM
- Kd [8]: 0.63 nM

B11: G9.1-8 Fab (Fab, V domains shown)
VH: B10 VH
VL: B6 VL with G91S, G92Y, W93Y, Y94D, Y95S, G96N
notes: Avitag at the C-terminus of the heavy chain, biotinylated when required; also called G9.1-8 WT Fab
- Kd [7]: 0.45 nM
- Kd [9]: 2.13 nM

B12: G9.1-8m12 Fab (Fab, V domains shown)
VH: EVQLVESGGGLVQPGGSLRLSCAASGFTVSSSSIHWVRQAPGKGLEWVAYIYPYSSSSSYADSVKGRFTISADTSKNTAYLQMNSLRAEDTAVYYCARYSTYSSSKWVWGMDYWGQGTLVTVSS
VL: B6 VL with G91S, G92Y, W93Y, Y94D, Y95S, G96N
notes: Purified Fab; also called G9.1-8mut12
- Kd [9]: 2.48 nM

B13: G9.1-8m13 Fab (Fab, V domains shown)
VH: EVQLVESGGGLVQPGGSLRLSCAASGFTVSSSSIHWVRQAPGKGLEWVAYIYPYSSSSSYADSVKGRFTISADTSKNTAYLQMNSLRAEDTAVYYCARYSTYSSKWVWGMDYWGQGTLVTVSS
VL: B6 VL with G91S, G92Y, W93Y, Y94D, Y95S, G96N
notes: Purified Fab; also called G9.1-8mut13
- Kd [9]: 20.7 nM

B14: G9.1-8m13 mIgG2a (antibody, V domains shown)
VH: B13 VH
VL: B6 VL with G91S, G92Y, W93Y, Y94D, Y95S, G96N
notes: also called G9.1-8mut13
- binding result [10]: no binding
- Kd [8]: 0.3 nM

B15: G9.1-8m14 Fab (Fab, V domains shown)
VH: EVQLVESGGGLVQPGGSLRLSCAASGFTVSSSSIHWVRQAPGKGLEWVAYIYPYSSSSSYADSVKGRFTISADTSKNTAYLQMNSLRAEDTAVYYCARYSTYKWVWGMDYWGQGTLVTVSS
VL: B6 VL with G91S, G92Y, W93Y, Y94D, Y95S, G96N
notes: Purified Fab; also called G9.1-8mut14
- Kd [9]: 58.5 nM

B16: G9.1-8m14 mIgG2a (antibody, V domains shown)
VH: B15 VH
VL: B6 VL with G91S, G92Y, W93Y, Y94D, Y95S, G96N
notes: also called G9.1-8mut14
- binding result [10]: no binding
- Kd [8]: 2.01 nM

B17: G9.1-8m12 mIgG2a (antibody, V domains shown)
VH: B12 VH
VL: B6 VL with G91S, G92Y, W93Y, Y94D, Y95S, G96N
notes: also called G9.1-8mut12
- binding result [10]: no binding
- Kd [8]: 0.32 nM

B18: G9.1-9 Fab (Fab, V domains shown)
VH: EVQLVESGGGLVQPGGSLRLSCAASGFTVSSSSIHWVRQAPGKGLEWVAYIYSSSGYTSYADSVKGRFTISADTSKNTAYLQMNSLRAEDTAVYYCARYSSYHYPYWLFAMDYWGQGTLVTVSS
VL: B6 VL with G91S, G92Y, W93F, Y94H, Y95K, G96I
- binding result [5]: binds

Source: patent publication US20220340666A1 (NEW YORK UNIVERSITY, published 2022)
